The labels stand for the following.
B1: C20orf112 (parent)
chain: YANGGLNYSYRGYGALSSNLQPPA
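Note: lentivirally expressed fusions sorted by FACS into six bins by GFP to DsRed ratio, PSI derived from sequencing read proportions per bin multiplied by bin number.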

Variants of B1 are the subject of this series. The series is described as follows: protein stability index of a GFP-peptide fusion (GPS, HEK-293T) (PSI 1-6); higher = more stable. To be noted: c terminus: a fixed tail appended.
With YANGGLNYSYFGYGALSSNLQPPA [R11F], the protein stability index was 2.31.

On to YANGGLNYSYMGYGALSSNLQPPA [R11M], for which the protein stability index was 2.48.

With YANGGLNYSYPGYGALSSNLQPPA [R11P], the protein stability index came out at 2.06.

On to YANGGLNYSYIGYGALSSNLQPPA [R11I], for which the protein stability index came to 1.98.

As for YANGGLNYSYDGYGALSSNLQPPA [R11D], the protein stability index came to 1.82.

For YANGGLNYSYCGYGALSSNLQPPA [R11C], the protein stability index worked out at 3.49.

With YANGGLNYSYWGYGALSSNLQPPA [R11W], the protein stability index was found to be 2.44.

Regarding YANGGLNYSYVGYGALSSNLQPPA [R11V], the protein stability index stood at 2.09.

As for YANGGLNYSYKGYGALSSNLQPPA [R11K], the protein stability index is 2.09.

On to YANGGLNYSYQGYGALSSNLQPPA [R11Q], for which the protein stability index was determined as 2.32.

Take YANGGLNYSYHGYGALSSNLQPPA [R11H]: the protein stability index was determined as 1.69.

YANGGLNYSYAGYGALSSNLQPPA [R11A]: the protein stability index was found to be 1.72.

For the variant YANGGLNYSYYGYGALSSNLQPPA [R11Y], the protein stability index was 2.21.

YANGGLNYSYLGYGALSSNLQPPA [R11L]: the protein stability index turned out to be 2.31.

As for YANGGLNYSYGGYGALSSNLQPPA [R11G], the protein stability index is 2.24.

With YANGGLNYSYSGYGALSSNLQPPA [R11S], the protein stability index came to 2.19.

Consider YANGGLNYSYEGYGALSSNLQPPA [R11E], for which the protein stability index was 1.94.

As for YANGGLNYSYTGYGALSSNLQPPA [R11T], the protein stability index was found to be 1.53.

Turning to YANGGLNYSYRGYGKLSSNLQPPA [A15K], the protein stability index was found to be 2.24.

On to YANGGLNYSYRGYGGLSSNLQPPA [A15G], for which the protein stability index was 1.87.

YANGGLNYSYRGYGWLSSNLQPPA [A15W]: the protein stability index came to 1.88.

For YANGGLNYSYRGYGRLSSNLQPPA [A15R], the protein stability index came out at 2.8.

Consider YANGGLNYSYRGYGNLSSNLQPPA [A15N], for which the protein stability index was 2.4.

On to YANGGLNYSYRGYGMLSSNLQPPA [A15M], for which the protein stability index was determined as 1.49.

In the case of YANGGLNYSYRGYGSLSSNLQPPA [A15S], the protein stability index was found to be 2.22.

On to YANGGLNYSYRGYGPLSSNLQPPA [A15P], for which the protein stability index worked out at 2.52.

As to YANGGLNYSYRGYGFLSSNLQPPA [A15F], the protein stability index turned out to be 2.68.

For YANGGLNYSYRGYGELSSNLQPPA [A15E], the protein stability index was 2.37.

Turning to YANGGLNYSYRGYGLLSSNLQPPA [A15L], the protein stability index came to 2.6.

For the variant YANGGLNYSYRGYGDLSSNLQPPA [A15D], the protein stability index came out at 2.07.

In the case of YANGGLNYSYRGYGVLSSNLQPPA [A15V], the protein stability index is 1.85.

Consider YANGGLNYSYRGYGYLSSNLQPPA [A15Y], for which the protein stability index stood at 2.97.

Consider YANGGLNYSYRGYGILSSNLQPPA [A15I], for which the protein stability index came to 2.42.

On to YANGGLNYSYRGYGTLSSNLQPPA [A15T], for which the protein stability index was found to be 2.75.

As for YANGGLNYSYRGYGCLSSNLQPPA [A15C], the protein stability index came to 2.32.

As for YANGGLNYSYRGYGQLSSNLQPPA [A15Q], the protein stability index was 1.77.

YANGGLNYSYRGYGHLSSNLQPPA [A15H]: the protein stability index is 2.62.

YANGGLNYSYRGYGALSSKLQPPA [N19K]: the protein stability index stood at 2.96.

As to YANGGLNYSYRGYGALSSSLQPPA [N19S], the protein stability index was determined as 2.44.

Consider YANGGLNYSYRGYGALSSRLQPPA [N19R], for which the protein stability index came to 1.99.

For YANGGLNYSYRGYGALSSCLQPPA [N19C], the protein stability index is 2.05.

Regarding YANGGLNYSYRGYGALSSHLQPPA [N19H], the protein stability index is 1.43.

For the variant YANGGLNYSYRGYGALSSWLQPPA [N19W], the protein stability index was 2.61.

As to YANGGLNYSYRGYGALSSILQPPA [N19I], the protein stability index is 1.71.

With YANGGLNYSYRGYGALSSFLQPPA [N19F], the protein stability index was 1.53.

Consider YANGGLNYSYRGYGALSSVLQPPA [N19V], for which the protein stability index was 1.99.

For the variant YANGGLNYSYRGYGALSSALQPPA [N19A], the protein stability index is 1.71.

Consider YANGGLNYSYRGYGALSSQLQPPA [N19Q], for which the protein stability index was found to be 2.14.

Take YANGGLNYSYRGYGALSSMLQPPA [N19M]: the protein stability index is 1.88.

For YANGGLNYSYRGYGALSSDLQPPA [N19D], the protein stability index turned out to be 2.15.

Turning to YANGGLNYSYRGYGALSSYLQPPA [N19Y], the protein stability index was determined as 1.57.

As for YANGGLNYSYRGYGALSSLLQPPA [N19L], the protein stability index turned out to be 2.53.

YANGGLNYSYRGYGALSSELQPPA [N19E]: the protein stability index is 1.11.

Take YANGGLNYSYRGYGALSSPLQPPA [N19P]: the protein stability index was found to be 2.18.

In the case of YANGGLNYSYRGYGALSSGLQPPA [N19G], the protein stability index is 1.42.

For the variant YANGGLNYSYRGYGALSSTLQPPA [N19T], the protein stability index stood at 1.91.

As to YANGGLNYSYRGPGALSSNLQPPA [Y13P], the protein stability index was determined as 2.04.

On to YANGGLNYSYRGCGALSSNLQPPA [Y13C], for which the protein stability index was determined as 2.63.

With YANGGLNYSYRGNGALSSNLQPPA [Y13N], the protein stability index turned out to be 1.84.

Consider YANGGLNYSYRGIGALSSNLQPPA [Y13I], for which the protein stability index is 2.29.

For YANGGLNYSYRGHGALSSNLQPPA [Y13H], the protein stability index amounted to 2.01.

For the variant YANGGLNYSYRGDGALSSNLQPPA [Y13D], the protein stability index turned out to be 1.82.

Consider YANGGLNYSYRGFGALSSNLQPPA [Y13F], for which the protein stability index turned out to be 2.5.

Consider YANGGLNYSYRGKGALSSNLQPPA [Y13K], for which the protein stability index came to 2.12.

Regarding YANGGLNYSYRGRGALSSNLQPPA [Y13R], the protein stability index turned out to be 1.42.

Regarding YANGGLNYSYRGWGALSSNLQPPA [Y13W], the protein stability index came to 2.96.

Turning to YANGGLNYSYRGGGALSSNLQPPA [Y13G], the protein stability index amounted to 1.77.

As to YANGGLNYSYRGVGALSSNLQPPA [Y13V], the protein stability index is 1.73.

With YANGGLNYSYRGAGALSSNLQPPA [Y13A], the protein stability index stood at 1.93.

As to YANGGLNYSYRGQGALSSNLQPPA [Y13Q], the protein stability index worked out at 2.13.

As for YANGGLNYSYRGSGALSSNLQPPA [Y13S], the protein stability index turned out to be 1.96.

With YANGGLNYSYRGMGALSSNLQPPA [Y13M], the protein stability index is 2.56.

Consider YANGGLNYSYRGLGALSSNLQPPA [Y13L], for which the protein stability index was 2.87.

Consider YANGGLNYSYRGTGALSSNLQPPA [Y13T], for which the protein stability index was 1.66.

With YANGGLNYSYRGEGALSSNLQPPA [Y13E], the protein stability index was 1.33.

With YANGGLNYSYRGYGARSSNLQPPA [L16R], the protein stability index worked out at 2.3.

With YANGGLNYSYRGYGAYSSNLQPPA [L16Y], the protein stability index was found to be 2.05.

As to YANGGLNYSYRGYGADSSNLQPPA [L16D], the protein stability index stood at 1.68.

Turning to YANGGLNYSYRGYGAHSSNLQPPA [L16H], the protein stability index came to 2.48.

Turning to YANGGLNYSYRGYGAISSNLQPPA [L16I], the protein stability index is 2.43.

Turning to YANGGLNYSYRGYGAQSSNLQPPA [L16Q], the protein stability index amounted to 2.02.

Consider YANGGLNYSYRGYGASSSNLQPPA [L16S], for which the protein stability index worked out at 2.03.

As for YANGGLNYSYRGYGAASSNLQPPA [L16A], the protein stability index was 2.11.

Regarding YANGGLNYSYRGYGAMSSNLQPPA [L16M], the protein stability index was found to be 1.75.

As for YANGGLNYSYRGYGAESSNLQPPA [L16E], the protein stability index is 2.54.

As to YANGGLNYSYRGYGAFSSNLQPPA [L16F], the protein stability index turned out to be 1.67.

As to YANGGLNYSYRGYGAGSSNLQPPA [L16G], the protein stability index turned out to be 2.61.

As for YANGGLNYSYRGYGAVSSNLQPPA [L16V], the protein stability index is 2.21.

Take YANGGLNYSYRGYGAKSSNLQPPA [L16K]: the protein stability index was found to be 1.87.

For the variant YANGGLNYSYRGYGACSSNLQPPA [L16C], the protein stability index worked out at 1.64.

Consider YANGGLNYSYRGYGAPSSNLQPPA [L16P], for which the protein stability index is 2.57.

Regarding YANGGLNYSYRGYGANSSNLQPPA [L16N], the protein stability index was 2.61.

Take YANGGLNYSYRGYGAWSSNLQPPA [L16W]: the protein stability index amounted to 2.68.

For YANGGLNYSYRGYGATSSNLQPPA [L16T], the protein stability index worked out at 1.76.

(Values after the supplement of paper PMC10567573.)
